According to patent US20190022211A1 (CELLTRION, published 2019):
Several values for one entry are separate records, joined by “and”; a condition that tells them apart may be missing. Equal entries are not always repeated.

Assays:
[1] = target: G protein of rabies virus DR Brazil , on virus (rabies virus); assay: cell-based or functional assay
[2] = target: G protein of rabies virus Mongoose RSA , on virus (rabies virus); assay: cell-based or functional assay

Binder | neutralizing activity (RFFIT) [1] | neutralizing activity (RFFIT), Titer [1] | neutralizing activity (RFFIT) [2] | neutralizing activity (RFFIT), Titer [2]
antibody 2 (antibody, V domains shown) VH: EVQLVESGAEVKKPGASVKVSCKASGYTFTSYDISWVRQAPGQGLEWMGWISTYKGNTNFAQKFQDRVTLTTDTSTTTAYMELRSLTSDDTAVYYCARAKSHPFYDFWSAYYVPGAFDIWGQGTVVTVSS VL: not shown | 1.8 IU/mL and 1800 IU/mg | 45 | 9.1 IU/mL and 9140 IU/mg | 320
antibody 1 (antibody, V domains shown) VH: VQLLQESGPGLAKPSETLSLICTVSGGSISRRRDYWGWIRQPPGRGLEWIGSFFHRGSTYYNPSLESRVSISVDPSKNQFSLHLSSVTVADTAVYYCARHPSTPFAEYLLLPDAFDSWGQGTLVTVSS VL: DIVMTQSPATLSVSPGERATLSCRASQSVRSSLAWYQQRPGQAPRLLISGASTRATDIPARLSGSGSGTEFTLTVSSLQSEDFAVYYCQQYSDWPLTFGGGTKVEIKR | 2.2 IU/mL and 2240 IU/mg | 56 | 7.7 IU/mL and 7710 IU/mg | 270
